In test [1] the target is glycoproteins on HeLa cells. As to the kind of experiment: CAR imaging on fixed HeLa cells on glass, 50 µg/ml WGA, average over cells, first order kinetic fit.
The target in test [2] is glycoproteins on HeLa cells. As to the kind of experiment: SPR imaging on fixed HeLa cells on gold, 50 µg/ml WGA, average of 10 cells, first order kinetic fit.

B1: wheat germ agglutinin (WGA) with Alexa Fluor 488 tag (protein, UniProt P10968 27-197, looked up)
chain: QRCGEQGSNMECPNNLCCSQYGYCGMGGDYCGKGCQNGACWTSKRCGSQAGGATCTNNQCCSQYGYCGFGAEYCGAGCQGGPCRADIKCGSQAGGKLCPNNLCCSQWGFCGLGSEFCGGGCQSGACSTDKPCGKDAGGRVCTNNYCCSKWGSCGIGPGYCGAGCQSGGCDG
modifications: Alexa Fluor 488 label, site not stated
For the molecule B1, in test [1], the Kd is 42 nM, the koff was 0.00026 s⁻¹ and the kon is 6000 M⁻¹ s⁻¹. In test [2], this molecule showed a Kd of 53 nM, a koff of 0.00013 s⁻¹ and a kon of 2500 M⁻¹ s⁻¹.

A word on the Kd: it is the equilibrium constant for the complex coming apart. Low values mean tighter binding, high ones weaker binding. By koff is commonly meant a measure of how fast the partners let go of each other. Lower therefore signals a long-lived complex. As a reminder, the kon is the second-order rate constant of association. Higher therefore signals fast association.

Source of the values: patent US20240118200A1.
